Assay results published in patent US20200323902.
Changes are numbered by the printed parent chain.

Legend:
Experiment in all cases: cell_activity
[1] = tested on: Sleeping Beauty transposase SB11 (synthetic); conditions: primary human CD3+ T cells, mean; unit inferred from figure legend
[2] = tested on: T1, TcBuster D189A/V377T/E469K (Tribolium castaneum); conditions: primary human CD3+ T cells, mean; nearly 2-fold over WT at day 14; unit inferred from figure legend
T1 sequence: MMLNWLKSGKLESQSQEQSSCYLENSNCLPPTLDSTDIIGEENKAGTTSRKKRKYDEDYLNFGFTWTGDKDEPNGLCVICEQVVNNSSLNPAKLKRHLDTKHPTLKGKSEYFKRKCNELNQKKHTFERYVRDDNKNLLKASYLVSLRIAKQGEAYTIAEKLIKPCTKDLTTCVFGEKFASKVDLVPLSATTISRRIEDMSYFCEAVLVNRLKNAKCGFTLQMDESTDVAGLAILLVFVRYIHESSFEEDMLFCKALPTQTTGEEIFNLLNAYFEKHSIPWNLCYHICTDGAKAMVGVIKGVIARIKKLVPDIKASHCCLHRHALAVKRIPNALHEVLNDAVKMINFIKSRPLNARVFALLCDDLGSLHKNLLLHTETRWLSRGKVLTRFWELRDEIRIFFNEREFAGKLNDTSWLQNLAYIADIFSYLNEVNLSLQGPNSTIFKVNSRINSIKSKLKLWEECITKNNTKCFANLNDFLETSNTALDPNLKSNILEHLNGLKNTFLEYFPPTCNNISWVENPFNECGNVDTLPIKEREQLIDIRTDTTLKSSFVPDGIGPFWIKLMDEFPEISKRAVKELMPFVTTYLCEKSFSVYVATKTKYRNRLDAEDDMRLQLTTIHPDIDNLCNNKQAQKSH

[3] = tested on: T2, TcBuster V377T/E469K V377T,E469K (Tribolium castaneum); conditions: primary human CD3+ T cells, mean; nearly 2-fold over WT at day 14; unit inferred from figure legend
T2 sequence: T1 sequence with A189D

mini-circle transposon with TcBuster and Sleeping Beauty IR/DRs, GFP cargo
activity [1]: 8.4 % GFP+ cells
activity [2]: 24.1 % GFP+ cells
activity [3]: 20.2 % GFP+ cells
